Results from patent US20050123549A1 (IMMUNOGEN, published 2005).

Experiments:
[1] = biological target: T1, Muc1 mucin carrying the CA6 sialoglycotope (human, UniProt P15941 24-1255, sialylated O-linked carbohydrate carrying the CA6 epitope; positions not stated); experiment: flow cytometry on HPAF-II cells, apparent Kd
T1 construct: whole, on cells; Target of DS6 on CA6-positive human cell lines (flow cytometry) and in their lysates (dot blots, immunoprecipitation); also called CA6 antigen; DS6 antigen
Description: (§1) Human cell lines were obtained from the American Type Culture Collection (ATCC) with the exception of OVCAR5 (Kearse et al., Int. J. Cancer 88(6):866-872 (2000)), OVCAR8 and IGROV1 cells (M. Seiden, Massachusetts General Hospital). All cells were grown in RPMI 1640 supplemented with 4 mM L-glutamine, 50 U/ml penicillin, 50 μg/ml streptomycin (Cambrex Bio Science, Rockland, Me.) and 10% v/v fetal bovine serum (Atlas Biologicals, Fort Collins, Colo.), referred hereafter as culture media. Cells were maintained in a 37° C., 5% CO₂ humidified incubator.
(§2) Cells ([…]) were incubated, on ice for 3-4 h, with serially diluted concentrations of the DS6 antibody prepared in FACS buffer (2% goat serum, RPMI) into 96-well plates. The cells were spun down in a table top centrifuge at 1500 rpm for 5 min at 4° C. After removing the media, the wells were then refilled with 150 μl of FACS buffer. The wash step was then repeated. FITC-labeled goat anti-mouse IgG (Jackson Immunoresearch) was diluted 1:100 to FACS buffer and incubated with the cells for 1 h on ice. The plate was covered in foil to prevent photobleaching of the signal. After two washes, the cells were fixed with 1% formaldehyde and analyzed on a flow cytometer.

[2] = biological target: T1, Muc1 mucin carrying the CA6 …; experiment: flow cytometry on BT-483 cells, apparent Kd
Description: as §2

[3] = biological target: T1, Muc1 mucin carrying the CA6 …; experiment: flow cytometry on T-47D cells, FITC anti-mouse IgG
Description: The fluorescence of cell lines incubated with the DS6 primary antibody and FITC conjugated anti-mouse IgG(H+L) secondary antibodies was measured by flow cytometry.
as §2

[4] = biological target: T1, Muc1 mucin carrying the CA6 …; experiment: flow cytometry on BT549 cells, apparent Kd
[5] = biological target: T1, Muc1 mucin carrying the CA6 …; experiment: flow cytometry on OVCAR5 cells, apparent Kd
Description: as §1, §2

[6] = biological target: T1, Muc1 mucin carrying the CA6 …; experiment: flow cytometry on BT-20 cells, apparent Kd
[7] = biological target: T1, Muc1 mucin carrying the CA6 …; experiment: flow cytometry on OVCAR5 cells, apparent Kd; remark: listed apart in the source
Description: as §2

[8] = biological target: T1, Muc1 mucin carrying the CA6 …; experiment: flow cytometry on HeLa cells
[9] = biological target: T1, Muc1 mucin carrying the CA6 …; experiment: flow cytometry on WISH cells, direct binding
[10] = biological target: T1, Muc1 mucin carrying the CA6 …; experiment: flow cytometry on MCF-7 cells, apparent Kd
Description: as §1, §2

[11] = biological target: T1, Muc1 mucin carrying the CA6 …; experiment: flow cytometry on KB cells, apparent Kd
[12] = biological target: T1, Muc1 mucin carrying the CA6 …; experiment: flow cytometry on HPAF-II cells, apparent Kd; remark: listed apart in the source
[13] = biological target: T1, Muc1 mucin carrying the CA6 …; experiment: flow cytometry on ZR-75-1 cells, apparent Kd
[14] = biological target: T1, Muc1 mucin carrying the CA6 …; experiment: flow cytometry on HPAC cells, apparent Kd
Description: as §2

[15] = biological target: T1, Muc1 mucin carrying the CA6 …; experiment: flow cytometry on BxPC-3 cells, apparent Kd
Description: as §1, §2

[16] = biological target: T1, Muc1 mucin carrying the CA6 …; experiment: flow cytometry on Caov-3 cells, apparent Kd
[17] = biological target: T1, Muc1 mucin carrying the CA6 …; experiment: flow cytometry on Caov-4 cells, apparent Kd
Description: as §2

[18] = biological target: T1, Muc1 mucin carrying the CA6 …; experiment: flow cytometry on CaOV3 cells, apparent Kd
[19] = biological target: T1, Muc1 mucin carrying the CA6 …; experiment: flow cytometry on PC-3 cells, apparent Kd
Description: as §1, §2

[20] = biological target: T1, Muc1 mucin carrying the CA6 …; experiment: flow cytometry on BT-549 cells, apparent Kd
Description: as §1, §2

[21] = biological target: T1, Muc1 mucin carrying the CA6 …; experiment: flow cytometry on T98G cells, apparent Kd
Description: as §2

- Kd [1]: 2.81 nM
- Kd [2]: 13.7 nM
- Kd [3]: 2.59 nM
- Kd [4]: 1.05 nM
- Kd [5]: 1.47 nM
- Kd [6]: 0.914 nM
- Kd [7]: 1.47 nM
- Kd [8]: 0.62 nM
- Kd [9]: 1.93 nM
- Kd [10]: 2.89 nM
- Kd [11]: 0.111 nM
- Kd [12]: 2.81 nM
- Kd [13]: 4.3 nM
- Kd [14]: 23.5 nM
- Kd [15]: 5.26 nM
- Kd [16]: 5.48 nM
- Kd [17]: 4.04 nM
- Kd [18]: 5.48 nM
- Kd [19]: 0.136 nM
- Kd [20]: 1.05 nM
- Kd [21]: 0.177 nM
B1: murine DS6 anti-CA6 monoclonal antibody (antibody, IgG1, V domains shown)
VH: QAYLQQSGAELVRSGASVKMSCKASGYTFTSYNMHWVKQTPGQGLEWIGYIYPGNGATNYNQKFKGKATLTADPSSSTAYMQISSLTSEDSAVYFCARGDSVPFAYWGQGTLVTVSA
VL: QIVLTQSPAIMSASPGEKVTITCSAHSSVSFMHWFQQKPGTSPKLWIYSTSSLASGVPARFGGSGSGTSYSLTISRMEAEDAATYYCQQRSSFPLTFGAGTKLELKR
notes: Whole murine monoclonal IgG from the DS6 hybridoma (ATCC PTA-4449); the 3' heavy chain cloning primer was BamIgG1 and the light chain primer was kappa; also called DS6 antibody; muDS6
